Reference: patent US20240343803A1 (SHANDONG SIMCERE BIOPHARMACEUTICAL, published 2024)

Legend:
[1] = biological target: T1, human PVRIG-his (AcroBiosystems, Cat NO. PVG-H52H4) (human, UniProt Q6DKI7 41-171, limits assumed); experiment: SPR (BIAcore), antibody captured on Protein A chip, human PVRIG-His analyte
T1 construct: also called human PVRIG protein
T1 sequence (looked up): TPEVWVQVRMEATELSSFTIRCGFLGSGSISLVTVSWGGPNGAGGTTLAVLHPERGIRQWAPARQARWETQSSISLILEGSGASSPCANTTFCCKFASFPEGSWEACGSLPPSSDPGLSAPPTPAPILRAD
How it was run: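 Anti-PVRIG antibody captured on a Protein A chip to about 50 RU Rmax, then human PVRIG-His injected at graded concentrations in multi-cycle kinetics (association and dissociation). Chip regenerated with glycine pH 1.5 between cycles; affinity derived from the fitted kinetics.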

[2] = biological target: T2, Fusion protein of extracellular domain of cynomolgus monkey TIGIT and mouse IgG2a Fc fragment (cynomolgus … (cynomolgus monkey)); experiment: ELISA, cynomolgus monkey TIGIT ECD-mFc
T2 construct: The entry includes the signal peptide (limits not recoverable) and the mouse IgG2a Fc
T2 sequence (chain, as listed by the source limits assumed): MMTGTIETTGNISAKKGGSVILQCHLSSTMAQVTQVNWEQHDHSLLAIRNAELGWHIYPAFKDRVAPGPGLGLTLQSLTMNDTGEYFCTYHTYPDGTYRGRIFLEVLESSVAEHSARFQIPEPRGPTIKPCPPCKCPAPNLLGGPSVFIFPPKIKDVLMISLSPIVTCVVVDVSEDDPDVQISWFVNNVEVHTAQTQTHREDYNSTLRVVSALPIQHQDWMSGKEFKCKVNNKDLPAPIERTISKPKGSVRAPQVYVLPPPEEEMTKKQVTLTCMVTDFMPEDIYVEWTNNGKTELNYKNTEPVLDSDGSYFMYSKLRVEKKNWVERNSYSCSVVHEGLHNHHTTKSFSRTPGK
How it was run: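 Antibodies diluted to 13 nM in 1% BSA, then 3-fold serial dilution for 12 concentrations, incubated with milk-blocked plates at 37° C for 1.5-2 h. Bound antibody detected with HRP-labelled secondary antibody (1:5000, 37° C, 1 h) and TMB, stopped with 1M HCl; OD450 nm read.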

[3] = biological target: T3, Full-length cynomolgus monkey TIGIT on CHO-K1 cells (CHO-K1 cynomolgus monkey TIGIT) (cynomolgus monkey); experiment: FACS; CHO-K1 cynomolgus monkey TIGIT
T3 construct: NCBI XP_015300911.1
T3 sequence (chain, as listed by the source limits assumed): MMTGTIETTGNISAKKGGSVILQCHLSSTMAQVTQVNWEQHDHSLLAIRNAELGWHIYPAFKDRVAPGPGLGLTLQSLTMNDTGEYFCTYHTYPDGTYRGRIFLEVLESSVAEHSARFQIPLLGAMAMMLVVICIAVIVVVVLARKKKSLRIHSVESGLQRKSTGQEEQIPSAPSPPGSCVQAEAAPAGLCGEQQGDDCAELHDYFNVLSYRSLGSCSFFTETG
How it was run: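 Binding curves from flow cytometry on CHO-K1 cells bearing full-length human or cynomolgus monkey TIGIT yielded the EC50. A 3-fold, 12-point antibody series starting at 80 nM before the 1:1 mix with cells in 1% BSA-PBS was incubated at 4° C for 60 min.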

[4] = biological target: T3, Full-length cynomolgus monkey TIGIT on …; experiment: cell binding, CHO-K1 cynomolgus monkey TIGIT
How it was run: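 Binding was measured by flow cytometry after a 60-minute, 4° C incubation of the antibodies with 2×10⁵ CHO-K1 cells displaying full-length human or cynomolgus monkey TIGIT. Antibody titration: 12 points, threefold serial dilution from 80 nM, in 1% BSA-PBS.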

[5] = biological target: T4, Full-length human TIGIT on CHO-K1 cells (CHO-K1 human TIGIT) (human, UniProt Q495A1 22-244); experiment: FACS; blocking of Bio-CD155-His binding to CHO-K1 human TIGIT cells
T4 construct: NCBI XP_024309156.1; the entry includes the signal peptide (limits not recoverable); The strain (high, medium, low) is named under assay; also called high expression strain 1D2; medium expression strain 2D10
T4 sequence: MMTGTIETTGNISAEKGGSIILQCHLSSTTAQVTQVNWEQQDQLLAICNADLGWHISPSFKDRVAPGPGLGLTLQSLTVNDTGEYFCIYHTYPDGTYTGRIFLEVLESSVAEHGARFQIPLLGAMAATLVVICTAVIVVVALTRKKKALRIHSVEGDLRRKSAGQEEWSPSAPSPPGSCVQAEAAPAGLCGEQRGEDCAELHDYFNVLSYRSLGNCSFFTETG
How it was run: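 Bound ligand was measured by flow cytometry on a BD Canto II, using CHO-K1 cells expressing human TIGIT at 2×10⁵/40 μL in 1% BSA-PBS. Equal volumes of antibody, as a 12-point 3-fold dilution series starting at 210 nM, and biotinylated CD155-His, diluted to 3 μg/mL, were added to the cells and held at 4° C for 60 min. APC-streptavidin (1:1700) was used for detection at 4° C for 40 min. IC50 values were obtained from the inhibition curves.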

Binder	Kd [1] [nM]	koff [1] [s⁻¹]	kon [1] [M⁻¹ s⁻¹]	EC50 [2] [nM]	EC50 [3] [nM]	EC50 [4] [nM]	IC50 [5] [nM]
PVRIG-A118 (Fc fusion, heavy chain antibody VHH-hinge-CH2-CH3, human IgG1 constant part; not shown: human IgG1 hinge-CH2-CH3) QVQLVESGGGLVQAGGSLRLSCAASETYFDLYVMGWYRQAPGKDRELVATITYTGSIKIVDSVKDRFTISRGDAKNTVSLQMSSLKPEDTAVYFCNADPSGLGRKVYWGQGTQVTVSS	0.48	0.00114	2.38e+06				
TIGIT-070-H1L1 (antibody, V domains shown, Humanized anti-TIGIT antibody) VH: EVQLVQSGAEVKKPGASVKVSCKASGYTFTNYYMHWVRQAPGQRLEWMGRIDPDSGGSKYNEKFKSRVTITVDKSASTAYMELSSLRSEDTAVYYCAREGHYGFYSDYWGQGTTVTVSS VL: DIQMTQSPSSLSASVGDRVTITCRVSENIYSYLAWYQQKPGKSPKLLIYNAKTLAEGVPSRFSGSGSGTDFTLTISSLQPEDFATYYCQHHYGNPLTFGPGTKVDIK				0.0123	1.05	0.0596	0.212
PVRIG-A50 (Fc fusion, heavy chain antibody VHH-hinge-CH2-CH3, human IgG1 constant part; also called PVRIG-50; not shown: human IgG1 hinge-CH2-CH3) EVQLVESGGGLVQPGGSLRLSCAASGFTFSYYDMSWVRQAPGKGLEWVSTINSNGGRTSYVDSVKGRFTISRDNTKNTLYLQMNSLKPEDTAVYYCVEGDPHNFGLENLSLRDFGSWGQGTQVTVSS	0.0254	1.29e-05	507000				
TIGIT-002-H4L3 (antibody, V domains shown, Humanized anti-TIGIT antibody) VH: EVQLQESGPGLVKPSETLSLTCAVSGYSITSDSWNWIRQPPGKKLEYIGYISYSGNTYYNPSLKSRVTISRDTSKNQFSLKLSSVTAADTAVYYCARLDFSNYGGAVDYWGQGTTVTVSS VL: DIVMTQSPDSLAVSLGERATINCKASQNVRTAVAWYQQKPGQSPKLMIYSASYRYTGVPDRFSGSGSGTDFTLTISSLQAEDVAVYYCQQYYTTPWTFGGGTKVEIK				0.0189	0.723	0.0473	0.137
TIGIT-006-H5L3 (antibody, V domains shown, Humanized anti-TIGIT antibody) VH: EVQLQESGPGLVKPSETLSLTCAVSGYSMTSDYWNWIRQPPGKKLEYIGYISYSGRTYYNPSLKSRVTISRDTSKNQFSLKLSSVTAADTAVYYCARGDYSNYGGAMYDWGQGTTVTVSS VL: DIVMTQSPDSLAVSLGERATINCRASQGVSTTIAWYQQKPGQSPKLLIYSASYRYTGVPRFSGSGSGTDFTLTISSLQAEDVAVYYCQQYYSSPFTFGGGTKVEIK				0.0132	0.922	0.0578	0.171
TIGIT-005-H2L1d (antibody, V domains shown, Humanized anti-TIGIT antibody with NG-site mutation in VL) VH: EVQLVQSGAEVKKPGASVKVSCKASGYAFTNYLIEWVRQAPGQRLEWMGVINPGSGGTNYKEKFKGRVTITADKSSSTAYMELSSLRSEDTAVYYCARGEYFFFDYWGQGTTVTVSS VL: DIVMTQSPDSLAVSLGERATINCKASQHVSNAVAWYQHKPGQSPKLLIYSASYRYTGVPDRFSGSGSGTDFTLTISSLQAEDVAVYYCQQHYNTPHTFGGGTKVEIK				0.0403	0.631	0.0566	0.15
PVRIG-A105 (Fc fusion, heavy chain antibody VHH-hinge-CH2-CH3, human IgG1 constant part; not shown: human IgG1 hinge-CH2-CH3) EVQLVESGGGLVQAGGSLRLSCAASGRTFDRHTMTWFRQAPGKEREFVATASRIPGDTYYSHSVKGRFTISRDNAKNTVYLQLNNLKPEDTAVYYCAATSAYCSEVDCYEKGSWYDNWGQGIQVTVSS	0.841	0.000443	527000				
